From US20220242958A1 (published 2022) come the findings set out here.

The target of test [1] is T1, human CD4, cell-expressed (human, UniProt P01730 26-458).
T1 construct: whole, on cells
Description: FACS, MOLM-13 cells.

The target of test [2] is T2, recombinant IL-3Rα ectodomain (UniProt P26951 19-305, limits assumed).
T2 construct: extracellular domain; also called IL-3Ra ectodomain; recombinant IL-3Ra
T2 sequence (looked up): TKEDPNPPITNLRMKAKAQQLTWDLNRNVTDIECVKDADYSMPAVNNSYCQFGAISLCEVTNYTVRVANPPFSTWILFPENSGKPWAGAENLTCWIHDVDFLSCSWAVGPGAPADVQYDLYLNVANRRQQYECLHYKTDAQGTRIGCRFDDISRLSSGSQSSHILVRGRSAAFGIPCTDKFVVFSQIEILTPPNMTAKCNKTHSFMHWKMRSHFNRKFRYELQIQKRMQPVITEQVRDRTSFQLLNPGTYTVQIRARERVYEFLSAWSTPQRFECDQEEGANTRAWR
Description: ELISA, recombinant IL-3Ra.

In test [3] the target is human CXCR4 (on cells, membrane extracts or viral lipoparticles) (human, UniProt P61073 1-352). As to the kind of experiment: cell-based or functional assay.
human CXCR4 (on cells, membrane extracts or viral lipoparticles), sequence (P61073 whole entry): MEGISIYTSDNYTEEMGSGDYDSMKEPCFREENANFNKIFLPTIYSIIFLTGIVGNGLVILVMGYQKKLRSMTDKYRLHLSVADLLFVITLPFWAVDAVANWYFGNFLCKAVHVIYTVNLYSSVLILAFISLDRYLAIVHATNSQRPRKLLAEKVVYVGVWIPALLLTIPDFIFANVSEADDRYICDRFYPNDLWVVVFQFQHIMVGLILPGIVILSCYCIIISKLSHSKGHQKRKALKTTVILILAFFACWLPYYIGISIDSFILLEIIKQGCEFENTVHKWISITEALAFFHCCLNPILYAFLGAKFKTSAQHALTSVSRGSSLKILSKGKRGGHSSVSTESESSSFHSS

B1: IL23R#20-CD4#8 (bispecific antibody)
chain: EVQLVESGGGLVQAGGSLRLSCAASGRTFSSYAMGWFRQAPGKDREFVAAISWIGESTYYADSVKGRFTISRDNAKNTVYLRMNSLKPEDTAVYYCAADLYYTAYVAAADEYDYWGQGTLVTVSSGGGGSGGGGSGGGGSGGGGSGGGGSGGGGSGGGGSEVQLVESGGGSVQPGGSLTLSCGTSGRTFNVMGWFRQAPGKEREFVAAVRWSSTGIYYTQYADSVKSRFTISRDNAKNTVYLEMNSLKPEDTAVYYCAADTYNSNPARWDGYDFRGQGTLVTVSS
notes: also called BI#43; T023200043
Consider B1, for which, in test [1], the binding result was “binds”.

B2: 57A07-281F12 (A0110057A07-35GS-4CXCR281F12(Q108L)) (bispecific antibody)
chain: EVQLVESGGGLVQAGGSLRLSCAASGSIFSGNVMGWYRRQAPGKEREWVAAIASGGSIYYRDSVKGRFTISRDNAKNTVYLQMNSLKPEDTAVYYCNSHPPTLPYWGQGTLVTVSSGGGGSGGGGSGGGGSGGGGSGGGGSGGGGSGGGGSEVQLVESGGGLVQAGDSLRLSCAASGRAFSRYAMGWFRQAPGKEREFVAAIGWGPSKTNYADSVKGRFTISRDNAKNTVYLQMNTLKPEDTAVYSCAAKFVNTDSTWSRSEMYTYWGQGTLVTVSSAAAEQKLISEEDLNGAAHHHHHH
notes: the entry carries a c-myc-His6 tag; also made as Flag3-His6-tagged protein; also called CD123#1-CXCR4#2; BI#10/21
For B2, the binding result in test [2] is given as “binds”.

B3: IL12Rb1#30-CD4#8 (bispecific antibody)
chain: EVQLVESGGGLVQTGGSLRLSCAASGRTPRLVAMGWFRQTPGKEREFVGEIILSKGFTYYADSVKGRFTISRVNAKNTITMYLQMNSLKSEDTAVYYCAGRQNWSGSPARTNEYEYWGQGTLVTVSSGGGGSGGGGSGGGGSGGGGSGGGGSGGGGSGGGGSEVQLVESGGGSVQPGGSLTLSCGTSGRTFNVMGWFRQAPGKEREFVAAVRWSSTGIYYTQYADSVKSRFTISRDNAKNTVYLEMNSLKPEDTAVYYCAADTYNSNPARWDGYDFRGQGTLVTVSS
notes: also called BI#46; T023200046
Take B3: the binding result in test [1] is given as “binds”.

B4: IL12Rb1#31-CD4#8 (bispecific antibody)
chain: EVQLVESGGGLVQTGGSLRLSCAASGRTPSIIAMGWFRQTPGKEREFVGEIILSKGFTYYADSVKGRFTISRANAKNTITMYLQMNSLKSEDTAVYYCAARQNWSGNPTRTNEYEYWGQGTLVTVSSGGGGSGGGGSGGGGSGGGGSGGGGSGGGGSGGGGSEVQLVESGGGSVQPGGSLTLSCGTSGRTFNVMGWFRQAPGKEREFVAAVRWSSTGIYYTQYADSVKSRFTISRDNAKNTVYLEMNSLKPEDTAVYYCAADTYNSNPARWDGYDFRGQGTLVTVSS
notes: also called BI#47; T023200047
As to B4, in test [1], the binding result is “binds”.

B5: 14D09-55A01 (4CXCR014D09(Q108L)-35GS-A0110055A01) (bispecific antibody)
chain: EVQLVESGGGLVQAGGSLRLSCVASGISSSKRNMGWYRQAPGKQRESVATISSGGNKDYTDAVKDRFTISRDTTKNTVYLQMNSLKPEDTAVYYCKIEAGTGWATRRGYTYWGQGTLVTVSSGGGGSGGGGSGGGGSGGGGSGGGGSGGGGSGGGGSEVQLVESGGGSVQAGGSLRLSCTTSGRALNMYVMGWFRQAPGNEREFVAATSSSGGSTSYPDSVKGRFTISRDNAKNTVYLQMNSLKPEDTAAYRCAASPYVSTPTMNILEEYRYWGQGTLVTVSSAAAEQKLISEEDLNGAAHHHHHH
notes: the entry carries a c-myc-His6 tag; also made as Flag3-His6-tagged protein; also called CXCR4#1-CD123#2; BI#7/19
As to B5, the binding result in test [2] is reported as “binds”. Besides, in test [3], the “Fold inc. vs anti-CXCR4 building block, Jurkat E6-1” value turned out to be 0.87 fold; the “Fold inc. vs anti-CXCR4 building block, MOLM-13” value was 2.39 fold; the “IC50, CXCL-12 induced chemotaxis, Jurkat E6-1” value (shortened to “IC50 … Jurkat E6-1”) amounted to 12 nM; the “IC50, CXCL-12 induced chemotaxis, MOLM-13” value (from here on “IC50 … MOLM-13”) was 3.6 nM.

B6: 57A07-14D09 (A0110057A07-35GS-4CXCR014D09(Q108L)) (bispecific antibody)
chain: EVQLVESGGGLVQAGGSLRLSCAASGSIFSGNVMGWYRRQAPGKEREWVAAIASGGSIYYRDSVKGRFTISRDNAKNTVYLQMNSLKPEDTAVYYCNSHPPTLPYWGQGTLVTVSSGGGGSGGGGSGGGGSGGGGSGGGGSGGGGSGGGGSEVQLVESGGGLVQAGGSLRLSCVASGISSSKRNMGWYRQAPGKQRESVATISSGGNKDYTDAVKDRFTISRDTTKNTVYLQMNSLKPEDTAVYYCKIEAGTGWATRRGYTYWGQGTLVTVSSAAAEQKLISEEDLNGAAHHHHHH
notes: the entry carries a c-myc-His6 tag; for the cell assays the construct was recloned and made in Pichia as Flag3-His6-tagged protein; also called CD123#1-CXCR4#1; BI#11/23
Consider B6, for which, in test [2], the binding result is given as “binds”. In test [3], the “Fold inc. vs anti-CXCR4 building block, Jurkat E6-1” value came out at 0.05 fold and the “IC50 … Jurkat E6-1” value was 210 nM.

B7: 281F12-57A07 (4CXCR281F12(Q108L)-35GS-A0110057A07) (bispecific antibody)
chain: EVQLVESGGGLVQAGDSLRLSCAASGRAFSRYAMGWFRQAPGKEREFVAAIGWGPSKTNYADSVKGRFTISRDNAKNTVYLQMNTLKPEDTAVYSCAAKFVNTDSTWSRSEMYTYWGQGTLVTVSSGGGGSGGGGSGGGGSGGGGSGGGGSGGGGSGGGGSEVQLVESGGGLVQAGGSLRLSCAASGSIFSGNVMGWYRRQAPGKEREWVAAIASGGSIYYRDSVKGRFTISRDNAKNTVYLQMNSLKPEDTAVYYCNSHPPTLPYWGQGTLVTVSSAAAEQKLISEEDLNGAAHHHHHH
notes: the entry carries a c-myc-His6 tag; also made as Flag3-His6-tagged protein; also called CXCR4#2-CD123#1; BI#4/18
On to B7, for which the binding result in test [2] is “binds”. For the same molecule, in test [3], the “Fold inc. vs anti-CXCR4 building block, Jurkat E6-1” value is 2.55 fold; the “Fold inc. vs anti-CXCR4 building block, MOLM-13” value came out at 12.6 fold; the “IC50 … Jurkat E6-1” value was determined as 38 nM; the “IC50 … MOLM-13” value was 6.83 nM.

B8: CD4#8-IL12Rb1#30 (bispecific antibody)
chain: EVQLVESGGGSVQPGGSLTLSCGTSGRTFNVMGWFRQAPGKEREFVAAVRWSSTGIYYTQYADSVKSRFTISRDNAKNTVYLEMNSLKPEDTAVYYCAADTYNSNPARWDGYDFRGQGTLVTVSSGGGGSGGGGSGGGGSGGGGSGGGGSGGGGSGGGGSEVQLVESGGGLVQTGGSLRLSCAASGRTPRLVAMGWFRQTPGKEREFVGEIILSKGFTYYADSVKGRFTISRVNAKNTITMYLQMNSLKSEDTAVYYCAGRQNWSGSPARTNEYEYWGQGTLVTVSS
notes: also called BI#40; T023200040
Consider B8, for which, in test [1], the binding result is “binds”.

B9: CD4#8-IL12Rb1#31 (bispecific antibody)
chain: EVQLVESGGGSVQPGGSLTLSCGTSGRTFNVMGWFRQAPGKEREFVAAVRWSSTGIYYTQYADSVKSRFTISRDNAKNTVYLEMNSLKPEDTAVYYCAADTYNSNPARWDGYDFRGQGTLVTVSSGGGGSGGGGSGGGGSGGGGSGGGGSGGGGSGGGGSEVQLVESGGGLVQTGGSLRLSCAASGRTPSIIAMGWFRQTPGKEREFVGEIILSKGFTYYADSVKGRFTISRANAKNTITMYLQMNSLKSEDTAVYYCAARQNWSGNPTRTNEYEYWGQGTLVTVSS
notes: also called BI#41; T023200041
Take B9: the binding result in test [1] is “binds”.

B10: 55A01-281F12 (A0110055A01-35GS-4CXCR281F12(Q108L)) (bispecific antibody)
chain: EVQLVESGGGSVQAGGSLRLSCTTSGRALNMYVMGWFRQAPGNEREFVAATSSSGGSTSYPDSVKGRFTISRDNAKNTVYLQMNSLKPEDTAAYRCAASPYVSTPTMNILEEYRYWGQGTLVTVSSGGGGSGGGGSGGGGSGGGGSGGGGSGGGGSGGGGSEVQLVESGGGLVQAGDSLRLSCAASGRAFSRYAMGWFRQAPGKEREFVAAIGWGPSKTNYADSVKGRFTISRDNAKNTVYLQMNTLKPEDTAVYSCAAKFVNTDSTWSRSEMYTYWGQGTLVTVSSAAAEQKLISEEDLNGAAHHHHHH
notes: the entry carries a c-myc-His6 tag; also made as Flag3-His6-tagged protein; also called CD123#2-CXCR4#2; BI#15/24
As for B10, in test [2], the binding result was “binds”.

B11: CD4#8-IL23R#19 (bispecific antibody)
chain: EVQLVESGGGSVQPGGSLTLSCGTSGRTFNVMGWFRQAPGKEREFVAAVRWSSTGIYYTQYADSVKSRFTISRDNAKNTVYLEMNSLKPEDTAVYYCAADTYNSNPARWDGYDFRGQGTLVTVSSGGGGSGGGGSGGGGSGGGGSGGGGSGGGGSGGGGSEVQLVESGGGLVQPGGSLTLSCVASGRTFSTDVMGWFRQAPGKEREFVAAHRTSGISTVYAASVKGRFTISRDNAKNTVYLGMKSLKPEDTAVYVCAAGSDASGGYDYWGQGTLVTVSS
notes: also called BI#45; T023200045
Take B11: in test [1], the binding result is given as “binds”.

B12: CD4#8-IL23R#20 (bispecific antibody)
chain: EVQLVESGGGSVQPGGSLTLSCGTSGRTFNVMGWFRQAPGKEREFVAAVRWSSTGIYYTQYADSVKSRFTISRDNAKNTVYLEMNSLKPEDTAVYYCAADTYNSNPARWDGYDFRGQGTLVTVSSGGGGSGGGGSGGGGSGGGGSGGGGSGGGGSGGGGSEVQLVESGGGLVQAGGSLRLSCAASGRTFSSYAMGWFRQAPGKDREFVAAISWIGESTYYADSVKGRFTISRDNAKNTVYLRMNSLKPEDTAVYYCAADLYYTAYVAAADEYDYWGQGTLVTVSS
notes: also called BI#44; T023200044
As to B12, the binding result in test [1] is on record as “binds”.

B13: 14D09-57A07 (4CXCR014D09(Q108L)-35GS-A0110057A07) (bispecific antibody)
chain: EVQLVESGGGLVQAGGSLRLSCVASGISSSKRNMGWYRQAPGKQRESVATISSGGNKDYTDAVKDRFTISRDTTKNTVYLQMNSLKPEDTAVYYCKIEAGTGWATRRGYTYWGQGTLVTVSSGGGGSGGGGSGGGGSGGGGSGGGGSGGGGSGGGGSEVQLVESGGGLVQAGGSLRLSCAASGSIFSGNVMGWYRRQAPGKEREWVAAIASGGSIYYRDSVKGRFTISRDNAKNTVYLQMNSLKPEDTAVYYCNSHPPTLPYWGQGTLVTVSSAAAEQKLISEEDLNGAAHHHHHH
notes: the entry carries a c-myc-His6 tag; also made as Flag3-His6-tagged protein; also called CXCR4#1-CD123#1; BI#16/20
Consider B13, for which the binding result in test [2] is listed as “binds”. Moreover, in test [3], the “Fold inc. vs anti-CXCR4 building block, Jurkat E6-1” value is 0.69 fold; the “Fold inc. vs anti-CXCR4 building block, MOLM-13” value amounted to 2.39 fold; the “IC50 … Jurkat E6-1” value was determined as 15 nM; the “IC50 … MOLM-13” value stood at 3.6 nM.

B14: 55A01-14D09 (A0110055A01-35GS-4CXCR014D09(Q108L)) (bispecific antibody)
chain: EVQLVESGGGSVQAGGSLRLSCTTSGRALNMYVMGWFRQAPGNEREFVAATSSSGGSTSYPDSVKGRFTISRDNAKNTVYLQMNSLKPEDTAAYRCAASPYVSTPTMNILEEYRYWGQGTLVTVSSGGGGSGGGGSGGGGSGGGGSGGGGSGGGGSGGGGSEVQLVESGGGLVQAGGSLRLSCVASGISSSKRNMGWYRQAPGKQRESVATISSGGNKDYTDAVKDRFTISRDTTKNTVYLQMNSLKPEDTAVYYCKIEAGTGWATRRGYTYWGQGTLVTVSSAAAEQKLISEEDLNGAAHHHHHH
notes: the entry carries a c-myc-His6 tag; also made as Flag3-His6-tagged protein; also called CD123#2-CXCR4#1; BI#8/22
In the case of B14, in test [2], the binding result is “binds”. In test [3], the “Fold inc. vs anti-CXCR4 building block, Jurkat E6-1” value came out at 0.12 fold; the “Fold inc. vs anti-CXCR4 building block, MOLM-13” value was determined as 0.03 fold; the “IC50 … Jurkat E6-1” value was found to be 85 nM; the “IC50 … MOLM-13” value was 290 nM.
